Assay results reported in publication PMC11061198, “Polyphosphate and tyrosine phosphorylation in the N-terminal domain of the human mitochondrial Lon protease disrupts its functions” (Scientific Reports, 2024).

Target: the molecule itself
Experiment: cryo-EM structure; ADP-bound hLon variants, 1.3 mg/ml, single-particle cryo-EM (cryoSPARC); homo-hexamer

B1: human Lon protease Y394E phosphorylation-mimicking mutant (enzyme, UniProt P36776 68-959, looked up)
chain: FWEASSRGGGAFSGGEDASEGGAEEGAGGAGGSAGAGEGPVITALTPMTIPDVFPHLPLIAITRNPVFPRFIKIIEVKNKKLVELLRRKVRLAQPYVGVFLKRDDSNESDVVESLDEIYHTGTFAQIHEMQDLGDKLRMIVMGHRRVHISRQLEVEPEEPEAENKHKPRRKSKRGKKEAEDELSARHPAELAMEPTPELPAEVLMVEVENVVHEDFQVTEEVKALTAEIVKTIRDIIALNPLYRESVLQMMQAGQRVVDNPIYLSDMGAALTGAESHELQDVLEETNIPKRLYKALSLLKKEFELSKLQQRLGREVEEKIKQTHRKELLQEQLKIIKKELGLEKDDKDAIEEKFRERLKELVVPKHVMDVVDEELSKLGLLDNHSSEFNVTRNYLDWLTSIPWGKYSNENLDLARAQAVLEEDHYGMEDVKKRILEFIAVSQLRGSTQGKILCFYGPPGVGKTSIARSIARALNREYFRFSVGGMTDVAEIKGHRRTYVGAMPGKIIQCLKKTKTENPLILIDEVDKIGRGYQGDPSSALLELLDPEQNANFLDHYLDVPVDLSKVLFICTANVTDTIPEPLRDRMEMINVSGYVAQEKLAIAERYLVPQARALCGLDESKAKLSSDVLTLLIKQYCRESGVRNLQKQVEKVLRKSAYKIVSGEAESVEVTPENLQDFVGKPVFTVERMYDVTPPGVVMGLAWTAMGGSTLFVETSLRRPQDKDAKGDKDGSLEVTGQLGEVMKESARIAYTFARAFLMQHAPANDYLVTSHIHLHVPEGATPKDGPSAGCTIVTALLSLAMGRPVRQNLAMTGEVSLTGKILPVGGIKEKTIAAKRAGVTCIVLPAENKKDFYDLAAFITEGLEVHFVEHYREIFDIAFPDEQAEALAVER
notes: human mitochondrial Lon protease (LONP1) lacking the N-terminal MTS, with Y394E; also called hLon Y394E; source: E. coli Rosetta 2 (DE3) or E. coli C321 (DE3), purified (NiNTA agarose, Superose 6 SEC)
With B1 the “stoichiometry N” value was 6.
